PMC7226213 (Cancer Science, 2020)
Values belong to the binder of their own block, whether it stands above or below them.

Legend:
[1] = target: T1, fibroblast growth factor 19 (FGF19), full-length (human, UniProt O95750, biotin (where co-transfected with BirA biotin-protein ligase)); assay: SPR
[2] = target: T1, fibroblast growth factor 19 (FGF19), …; assay: ELISA

T1 sequence (O95750 25-216): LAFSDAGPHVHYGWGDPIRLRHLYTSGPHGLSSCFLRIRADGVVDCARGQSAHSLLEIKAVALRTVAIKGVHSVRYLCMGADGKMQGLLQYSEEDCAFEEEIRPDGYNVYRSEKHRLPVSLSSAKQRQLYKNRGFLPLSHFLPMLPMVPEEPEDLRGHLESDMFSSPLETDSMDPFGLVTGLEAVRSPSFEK

- binding result [1]: binds
B1: 31A3, human IgG1 Ab (antibody, V domains shown)
VH: not shown
VL: QAGLTQPASVSGSPGQSITISCTGTSSDVGGYNYVSWYQQHPGKAPKLMIYDVSNRPSGVSDRFSGSKSGNTASLTISGLQTEDEADYYCSSYTRSSTLVFGGGTQLTVL

- fold increase of affinity over 31A3 [1]: 27 fold
- fold slower dissociation rate than 31A3 [1]: 60 fold
B2: G1A8, human IgG1 Ab (antibody, V domains shown)
VH: not shown
VL: QAGLTQPASVSGSPGQSITISCTGTSSDVGGYNYVSWYQQHPGKAPKLMIYDVSNRPSGVSDRFSGSKSGNTASLTISGLQTEDEADYYCSSWTRSSGLVFGGGTQLTVL

- IC50 [2]: 1.39 nM
B3: G1A8-Fab (Fab, V domains shown)
VH: not shown
VL: QAGLTQPASVSGSPGQSITISCTGTSSDVGGYNYVSWYQQHPGKAPKLMIYDVSNRPSGVSDRFSGSKSGNTASLTISGLQTEDEADYYCSSWTRSSGLVFGGGTQLTVL
